This note sets out measurements from publication PMC3286859.

The test system of data set [1] is Cc1cc(=O)oc2cc(NC(=O)[C@H](CCCNC(=N)N)NC(=O)[C@H](Cc3ccccc3)NC(=O)OCc3ccccc3)ccc12. In words: purified protein. The conditions noted are these: 100 mM sodium acetate pH 5.0, 1 mM EDTA, 2 mM DTT, no crammer added.
Data set [2] concerns the target recombinant Drosophila cathepsin B (Drosophila). In words: enzyme inhibition assay.
Data set [3] addresses Drosophila cathepsin L purified from fly head extracts (Drosophila melanogaster (endogenous in fly heads)). In words: enzyme inhibition assay.

Turning to “Drosophila cathepsin L (Drosophila melanogaster)”, the Km in data set [1] amounted to 3.85 µM. crammer Y12A (natural protein): the Ki in data set [2] was found to be 18900 nM. Still for that read-out and setting: next, crammer C72S (natural protein): 1870 nM. For the substance crammer F16A (natural protein), the Ki in data set [2] was determined as 2260 nM. The same measure, in the same setting: the value for crammer Y20A (natural protein) was 5400 nM.

For the substance “Drosophila melanogaster crammer, recombinant wild type (monomer) (natural protein)”, the inhibitory constant (Ki) in data set [3] was 1.36 nM; in data set [2], 790 nM.

Broadly, the Km is the substrate concentration at which the rate is half of its maximum. As a reminder, the Ki is the equilibrium dissociation constant of an inhibitor or competing ligand from its target.
